Assay results: patent US20260167721A1 (ABLEXIS, published 2026)
Substitutions are numbered along the chain they refer to.

B1: CD3 × CD33-BspAb104 (bispecific antibody)
scFv-Fc: QSALTQPASVSGSPGQSITISCTGTSSDVGSYNLVSWYQQHPGKAPKLMIYEDIRRPSGVSNRFSASKSGDTASLTISGLQAEDEADYYCSSYAGSTTFAIFGCGTKLTVLGGGGSGGGGSGGGGSGGGGSEVQLVQSGAEVKKPGESLKISCKGSEYSFTTYWIAWVRQMPGKCLEWMGIIYPGDSDTTYSPSFQGQVTISADKSISIAFLQWSSLKASDTAMYYCARQGELDAFDIWGQGTMVTVSSGGGGSDKTHTCPPCPAPEFEGGPSVFLFPPKPKDTLMISRTPEVTCVVVDVSHEDPEVKFNWYVDGVEVHNAKTKPREEQYNSTYRVVSVLTVLHQDWLNGKEYKCKVSNKALPASIEKTISKAKGQPREPQVYTLPPCREEMTKNQVSLWCLVKGFYPSDIAVEWESNGQPENNYKTTPPVLDSDGSFFLYSKLTVDKSRWQQGNVFSCSVMHEALHNHYTQKSLSLSPGK
heavy: EVQLVQSGAEVKKPGSSVKVSCKASGYTITDSNIHWVRQAPGQSLEWIGYIYPYNGGTDYNQKFKNRATLTVDNPTNTAYMELSSLRSEDTAFYYCVNGNPWLAYWGQGTLVTVSSASTKGPSVFPLAPSSKSTSGGTAALGCLVKDYFPEPVTVSWNSGALTSGVHTFPAVLQSSGLYSLSSVVTVPSSSLGTQTYICNVNHKPSNTKVDKRVEPKSCDKTHTCPPCPAPEFEGGPSVFLFPPKPKDTLMISRTPEVTCVVVDVSHEDPEVKFNWYVDGVEVHNAKTKPREEQYNSTYRVVSVLTVLHQDWLNGKEYKCKVSNKALPASIEKTISKAKGQPREPQVCTLPPSREEMTKNQVSLSCAVKGFYPSDIAVEWESNGQPENNYKTTPPVLDSDGSFFLVSKLTVDKSRWQQGNVFSCSVMHEALHNRFTQKSLSLSPGK
light: DIQLTQSPSTLSASVGDRVTITCRASESLDNYGIRFLTWFQQKPGKAPKLLMYAASNQGSGVPSRFSGSGSGTEFTLTISSLQPDDFATYYCQQTKEVPWSFGQGTKVEVKRTVAAPSVFIFPPSDEQLKSGTASVVCLLNNFYPREAKVQWKVDNALQSGNSQESVTEQDSKDSTYSLSSTLTLSKADYEKHKVYACEVTHQGLSSPVTKSFNRGEC
notes: KiH heterodimer
B2: CD3 × CD33-BspAb117 (bispecific antibody)
scFv-Fc: NFMLTQPHSVSESPGKTVTISCTRSSGSIASNYVQWYQQRPGSSPTSVIYEDNQRPSGVPDRFSGSIDSSSNSASLTISGLKTEDEADYYCQSYDRSNRVFGCGTKLTVLGGGGSGGGGSGGGGSGGGGSEVQLVESGGGLVKPGGSLRLSCAASGLTFSTYSMNWVRQAPGKCLEWVSSISSSGSYVYYADSVKGRFTMSRDNAKNSLYLQMNSLRAEDTAVYYCARERRELLFDYWGQGTLVTVSSGGGGSDKTHTCPPCPAPEFEGGPSVFLFPPKPKDTLMISRTPEVTCVVVDVSHEDPEVKFNWYVDGVEVHNAKTKPREEQYNSTYRVVSVLTVLHQDWLNGKEYKCKVSNKALPASIEKTISKAKGQPREPQVYTLPPCREEMTKNQVSLWCLVKGFYPSDIAVEWESNGQPENNYKTTPPVLDSDGSFFLYSKLTVDKSRWQQGNVFSCSVMHEALHNHYTQKSLSLSPGK
heavy: B1 heavy
light: B1 light
notes: KiH heterodimer
B3: CD3 × CD33-BspAb113 (bispecific antibody)
scFv-Fc: NFMLTQPHSVSESPGKTVTISCTRSSGSIASNYVQWYQQRPGSSPTTVIYEDNQRPSGVPDRFSGSIDSSSNSASLTISGLKTEDEADYYCQSYDSSNRVFGCGTKLTVLGGGGSGGGGSGGGGSGGGGSEVQLVESGGGLVKFGGSLRLSCAASGFTFSRYSMNWVRQAPGKCLEWVSSISSSSSYKYYADSVKGRFTISRDNAKNSLYLQMNSLRAEDTAVYYCAREGGNSHGMDVWGQGTTVTVSSGGGGSDKTHTCPPCPAPEFEGGPSVFLFPPKPKDTLMISRTPEVTCVVVDVSHEDPEVKFNWYVDGVEVHNAKTKPREEQYNSTYRVVSVLTVLHQDWLNGKEYKCKVSNKALPASIEKTISKAKGQPREPQVYTLPPCREEMTKNQVSLWCLVKGFYPSDIAVEWESNGQPENNYKTTPPVLDSDGSFFLYSKLTVDKSRWQQGNVFSCSVMHEALHNHYTQKSLSLSPGK
heavy: B1 heavy
light: B1 light
notes: KiH heterodimer
B4: CD3 × CD33-BspAb115 (bispecific antibody)
scFv-Fc: NFMLTQPHSVSESPGKTVTISCTRTSGSIASNYVQWYQQRPGSSPTTVIYEDNQRPSGVPDRFSGSIDSSSNSASLTISGLKTEDEAAYYCQSYDRSNRVFGCGTKLTVLGGGGSGGGGSGGGGSGGGGSQVQLQESGPGLVKPSETLSLTCTVSGGSISSYYWSWIRQPAGKCLEWIGRIYTSGSTKYNPSLKSRVTMSVDTSKNQFSLKLISVTAADTAVYFCARERIRDLYFDYWGQGTLVTVSSGGGGSDKTHTCPPCPAPEFEGGPSVFLFPPKPKDTLMISRTPEVTCVVVDVSHEDPEVKFNWYVDGVEVHNAKTKPREEQYNSTYRVVSVLTVLHQDWLNGKEYKCKVSNKALPASIEKTISKAKGQPREPQVYTLPPCREEMTKNQVSLWCLVKGFYPSDIAVEWESNGQPENNYKTTPPVLDSDGSFFLYSKLTVDKSRWQQGNVFSCSVMHEALHNHYTQKSLSLSPGK
heavy: B1 heavy
light: B1 light
notes: KiH heterodimer
B5: CD3 × CD33-BspAb118 (bispecific antibody)
scFv-Fc: FMLTQPHSVSESPGKTVTISCTRSSGSIASNYVQWYQQRPGSSPTTVIYEDNQRPSGVPDRFSGSIDSSSNSASLTISGLQTEDEADYYCQSYDSSNRVFGCGTKLTVLGGGGSGGGGSGGGGSGGGGSEVQLVESGGGLVKPGGSLRLSCVASGFTFSRYSMNWVRQAPGKCLEWVSSISSSSRYTYYADSLKGRFIMSRDNAKNSLFLQMNSLRAEDTAVYYCARNLYNALDYWGQGTLVTVSSGGGGSDKTHTCPPCPAPEFEGGPSVFLFPPKPKDTLMISRTPEVTCVVVDVSHEDPEVKFNWYVDGVEVHNAKTKPREEQYNSTYRVVSVLTVLHQDWLNGKEYKCKVSNKALPASIEKTISKAKGQPREPQVYTLPPCREEMTKNQVSLWCLVKGFYPSDIAVEWESNGQPENNYKTTPPVLDSDGSFFLYSKLTVDKSRWQQGNVFSCSVMHEALHNHYTQKSLSLSPGK
heavy: B1 heavy
light: B1 light
notes: KiH heterodimer
B6: CD3 × CD33-BspAb116 (bispecific antibody)
scFv-Fc: NFMLTQPHSVSESPGKTVTISCTRSSGSIASNYVQWYQQRPGSSPTTVIYEDNQRPSGVPDRFSGSIDSSSNSASLTISGLKTEDEAYYYCQSFDSSNRVFGCGTKLTVLGGGGSGGGGSGGGGSGGGGSQVQLQESGPGLVKPSQTLSLTCTVSGGSISSGGYYWSWIRQHPGKCLEWIGYIYYSGSTYYNPSLKSRVTISVDTSKDQFSLKLSSVTAADTAVYYCARERKTSLPFDIWGQGTMVTVSSGGGGSDKTHTCPPCPAPEFEGGPSVFLFPPKPKDTLMISRTPEVTCVVVDVSHEDPEVKFNWYVDGVEVHNAKTKPREEQYNSTYRVVSVLTVLHQDWLNGKEYKCKVSNKALPASIEKTISKAKGQPREPQVYTLPPCREEMTKNQVSLWCLVKGFYPSDIAVEWESNGQPENNYKTTPPVLDSDGSFFLYSKLTVDKSRWQQGNVFSCSVMHEALHNHYTQKSLSLSPGK
heavy: B1 heavy
light: B1 light
notes: KiH heterodimer
B7: CD3 × CD33-BspAb120 (bispecific antibody)
chain 1: NFMLTQPHSVSESPGKTVAISCTRSSGSIASNYVQWYQQRPGSSPTAVIYEDNQRPSGVPDRFSGSIDSSSNSAFLTISGLKTEDEADYYCQSYDSSNRVFGCGTKLTVLGGGGSGGGGSGGGGSGGGGSEVQLVESGGGLVKPGGSLRLSCAASGFTFSSYSMNWVRQAPGKCLEWVSSISRSSGYIFYADSVKGRFTISRDNAKNSLYLQMNSLRAEDTAVYYCVRERVGAGFDYWGQGTLVTVSSDKTHTCPPCPAPEFEGGPSVFLFPPKPKDTLMISRTPEVTCVVVDVSHEDPEVKFNWYVDGVEVHNAKTKPREEQYNSTYRVVSVLTVLHQDWLNGKEYKCKVSNKALPASIEKTISKAKGQPREPQVYTLPPCREEMTKNQVSLWCLVKGFYPSDIAVEWESNGQPENNYKTTPPVLDSDGSFFLYSKLTVDKSRWQQGNVFSCSVMHEALHNHYTQKSLSLSPGK
chain 2: B1 heavy
chain 3: B1 light
B8: CD3 × CD33-BspAb119 (bispecific antibody)
scFv-Fc: B3 scFv-Fc with L134V, V135A, F144P, S185G, K188T, A227V, G230R, N232K, S233G, H234A
heavy: B1 heavy
light: B1 light
notes: KiH heterodimer

Each binder was assayed against T1, human CD3 (TCR/CD3 complex on the cell surface) (human, UniProt P07766 23-207; P04234 22-171; P09693 23-182) (assay: flow cytometry, Pan-T cells, 1 ug/mL).
T1 construct: whole, on cells; Native CD3 on human Pan-T cells or Jurkat wild-type cells; also called CD3 on Pan-T cells; CD3 on Jurkat WT cells
T1 sequence (P07766 23-207, chain 1 of 3): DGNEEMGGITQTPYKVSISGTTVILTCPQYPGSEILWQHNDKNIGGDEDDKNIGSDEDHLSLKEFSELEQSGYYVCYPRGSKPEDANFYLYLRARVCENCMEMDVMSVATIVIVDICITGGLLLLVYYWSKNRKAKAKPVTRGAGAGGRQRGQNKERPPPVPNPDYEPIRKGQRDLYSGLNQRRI
T1 sequence (P04234 22-171, chain 2 of 3): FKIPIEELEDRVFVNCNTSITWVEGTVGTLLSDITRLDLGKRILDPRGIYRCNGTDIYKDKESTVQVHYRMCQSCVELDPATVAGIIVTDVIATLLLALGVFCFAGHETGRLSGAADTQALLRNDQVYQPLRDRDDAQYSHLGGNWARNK
T1 sequence (P09693 23-182, chain 3 of 3): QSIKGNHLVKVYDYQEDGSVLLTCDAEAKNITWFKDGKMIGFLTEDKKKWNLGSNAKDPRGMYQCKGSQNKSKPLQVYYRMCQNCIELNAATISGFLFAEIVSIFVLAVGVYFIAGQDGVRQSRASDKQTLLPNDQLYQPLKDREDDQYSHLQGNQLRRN

% Positive [%] | gMFI [gMFI] | Binder
1.2 | 2020 | B1
99.6 | 70300 | B2
96.2 | 24900 | B3
63.4 | 8660 | B4
99.3 | 331000 | B5
31.6 | 5260 | B6
95.2 | 27600 | B7
99.8 | 88200 | B8

What follows are binders tested against T1, human CD3 (TCR/CD3 complex on the cell …) (assay: flow cytometry, Jurkat WT cells, 1 ug/mL).

gMFI [gMFI] | Binder
1700 | B1
29700 | B2
10100 | B3
7380 | B4
56300 | B5
3320 | B6
8730 | B7
22400 | B8

These binders were tested against T1, human CD3 (TCR/CD3 complex on the cell …) (assay: flow cytometry, Jurkat WT gMFI over Jurkat KO gMFI, 1 ug/mL).

Jurkat WT/KO (Fold) [fold] | Binder
0.8 | B1
8.7 | B2
3.9 | B3
3.6 | B4
12.3 | B5
1.6 | B6
3.7 | B7
7.8 | B8

What follows are binders tested against T1, human CD3 (TCR/CD3 complex on the cell …) (assay: flow cytometry, Pan-T cells, 10 ug/mL).

% Positive [%] | gMFI [gMFI] | Binder
1.6 | 2090 | B1
99.7 | 195000 | B2
99.5 | 111000 | B3
95.5 | 34200 | B4
99.8 | 370000 | B5
98.2 | 30000 | B6
99.3 | 87700 | B7
99.7 | 166000 | B8

What follows are binders tested against T1, human CD3 (TCR/CD3 complex on the cell …) (assay: flow cytometry, Jurkat WT gMFI over Jurkat KO gMFI, 10 ug/mL).

Jurkat WT/KO (Fold) [fold] | Binder
1 | B1
10.6 | B2
5.9 | B3
5.7 | B4
13.8 | B5
4.1 | B6
6.1 | B7
9 | B8

These binders were tested against T1, human CD3 (TCR/CD3 complex on the cell …) (assay: flow cytometry, Jurkat WT cells, 10 ug/mL).

gMFI [gMFI] | Binder
1790 | B1
38600 | B2
16000 | B3
12600 | B4
65000 | B5
9600 | B6
14600 | B7
25700 | B8
